Drawing on patent US20250154283A1 (published 2025), this text covers Kd for 16 molecules.

The target of experiment [1] is T1, biotinylated human VWF cysteine knot (CK) domain construct (human, UniProt P04275 2724-2813, biotinylated in vitro (BirA) on the biotinylation tag; one N-glycan).
T1 construct: Expressed in HEK293 EBNA cells; disulfide-linked homodimer; also called human VWF CK; human VWF CK domain; not shown: in vitro biotinylation tag, HRV-3C site and 3 VWF residues before the CK domain
The experiment in a line: SPR, scFv captured via anti-SV5, CK domain injected, pH 5.5, apparent Kd.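 Further: scFvs from crude yeast supernatants captured on chip-bound anti-SV5 antibody, Kd computed as koff divided by kon, dimeric CK construct likely makes affinity appear higher.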

In experiment [2] the target is T1, biotinylated human VWF cysteine knot …. The experiment in a line: SPR, scFv captured via anti-SV5, CK domain injected, pH 7.4, apparent Kd.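 Further: scFvs from crude yeast supernatants printed on an amine-coupled anti-SV5 lawn, Kd computed as koff over kon, likely overestimating affinity because the CK construct is dimeric.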 Background: In SPR one partner is held on a chip, and binding of the other changes the refractive index at the surface.
Excerpt: Briefly, a sensor chip was activated and coupled with an anti-SV5 mouse monoclonal antibody using amine coupling. The soluble scFvs in crude yeast supernatants were printed on the anti-SV5 lawn. […] From the measured association (kₒₙ) and dissociation (koff) rate constants, an apparent equilibrium dissociation constant (Kd=koff/kₒₙ) was estimated. Due to the dimeric state of the CK construct and consequent possibility for simultaneous binding of captured scFv to both monomers in the CK dimer, the SPR setup was expected to overestimate the binding affinity.
For experiment [3], the target named is T2, biotinylated cynomolgus monkey VWF cysteine knot (CK) domain construct (cynomolgus monkey, biotinylated in vitro (BirA) on the biotinylation tag; one N-glycan).
T2 construct: Expressed in HEK293 EBNA cells; disulfide-linked homodimer; also called cyno VWF CK; cyno VWF CK domain; not shown: in vitro biotinylation tag, HRV-3C site and 3 VWF residues before the CK domain
T2 chain: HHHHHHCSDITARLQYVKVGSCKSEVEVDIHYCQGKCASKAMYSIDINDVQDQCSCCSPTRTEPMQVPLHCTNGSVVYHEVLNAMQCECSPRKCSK
Described as above.

B1: 487_Lib1_scFv (scFv)
scFv: QVQLVQSGAEVKKPGASVKVSCKVSGYTFTSHIIHWVRQAPGKGLEWMGGMNPYSNKAIYAQKFQGRVTMTEDTSTDTAYMELSSLKSEDTAVYYCARDASDYGDYGYYYYYMDVWGKGTTVTVSSSGGSTITSYNVYYTKLSSSGTDIQMTQSPSSVSASVGDRVTITCRASQSIGDFLAWYQQKPGKAPKLLIYDASHLQTGVPSRFSGSGSGTDFTLTISSLQPEDFANYYCQQTSTIPPTFGGGTKVEIK
notes: VH-linker-VL; not shown: C-terminal 3xFLAG and SV5 tags
As to B1, the Kd in experiment [1] came out at 0.829 nM; in experiment [2], 1.5 nM; in experiment [3], 1.51 nM.

B2: 3964_Lib4_scFv (scFv)
scFv: QVQLQESGPGLVKPSQTLSLTCTVSGASISTHSWSWIRQPPGKGLEWIGYINPSGDIDYNPSLKSRVTMSVDTSKNQFSLKVNSVTAADTAVYYCARGRTGFDSSGFVVGAFDIWGQGTMVTVSSSGGSTITSYNVYYTKLSSSGTEIVMTQSPATLSLSPGERATLSCRASQNVNDNLAWYQQKPGQAPRLLIYDASTRPTGIPARFSGSGSGTDFTLTISSLEPEDFAVYYCQQYLTIPRTFGGGTKVEIK
notes: as for B1
On to B2, for which the values for the Kd in experiment [1], in experiment [2] and in experiment [3] were 0.737 nM, 1.13 nM and 0.689 nM, respectively.

B3: 3552_Lib8_scFv (scFv)
scFv: EVQLVESGGGLVQPGRSLRLSCAASEFTFGDYDMHWVRQAPGKGLEWVSAISSSGSNRDYADSVEGRFTISRDNAKNSLYLQMNSLRAEDTAVYYCARDAWFGDAFDIWGQGTMVTVSSSGGSTITSYNVYYTKLSSSGTDIQMTQSPSSLSASVGDRVTITCRASESVSSWLAWYQQKPGKAPKLLIYGASTLEGGVPSRFSGSGSGTDFTLTISSLQPEDVATYYCQQSYSFPDFGGGTKVEIK
notes: as for B1
With B3, the Kd in experiment [1] was found to be 0.412 nM; in experiment [2], 1.16 nM; in experiment [3] it was 0.018 nM.

B4: 256_Lib8_scFv (scFv)
scFv: EVQLVESGGGLVQPGRSLRLSCAASGFTVSSNAMHWVRQAPGKGLEWVSAIGTFADTDYADSVEGRFTISRDNAKNSLYLQMNSLRAEDTAVYYCAREGAAAGTNFDYWGQGTLVTVSSSGGSTITSYNVYYTKLSSSGTDIQMTQSPSSLSASVGDRVTITCRASQGIRSYLAWYQQKPGKAPKLLIYGASTLEGGVPSRFSGSGSGTDFTLTISSLQPEDVATYYCQQSYSTPPKFGGGTKVEIK
notes: as for B1
For the molecule B4, the Kd was 0.731 nM in experiment [1], 1.76 nM in experiment [2] and 0.758 nM in experiment [3].

B5: 2301_Lib4_scFv (scFv)
scFv: QVQLQESGPGLVKPSQTLSLTCTVSGASISTSDHSWSWIRQPPGKGLEWIGYIRDTGSTDYNPSLKSRVTMSVDTSKNQFSLKVNSVTAADTAVYYCAISSTERWKQSFGVDTEYFQHWGQGTLVTVSSSGGSTITSYNVYYTKLSSSGTEIVMTQSPATLSLSPGERATLSCRASRYVSTNLAWYQQKPGQAPRLLIYDAVTRAPGIPARFSGSGSGTDFTLTISSLEPEDFAVYYCQQYHSLPLIFGGGTKVEIK
notes: as for B1
On to B5, for which the Kd in experiment [1] was determined as 3.87 nM; in experiment [2] it was 1.84 nM; in experiment [3] it was 0.803 nM.

B6: 2738_Lib1_scFv (scFv)
scFv: QVQLVQSGAEVKKPGASVKVSCKVSGYTLTDLPIHWVRQAPGKGLEWMGGINPFLGTTIYAQKFQGRVTMTEDTSTDTAYMELSSLKSEDTAVYYCARGVDMLATARDYYYMAIWGKGTTVTVSSSGGSTITSYNVYYTKLSSSGTDIQMTQSPSSVSASVGDRVTITCRASQSIGNDLAWYQQKPGKAPKLLIYGASMRATGVPSRFSGSGSGTDFTLTISSLQPEDFANYYCQQYASDPLTFGGGTKVEIK
notes: as for B1
B6: the results for the Kd in experiment [1], in experiment [2] and in experiment [3] were 0.519 nM, 1.18 nM and 0.922 nM, respectively.

B7: Lib4_P2_A1_scFv (scFv)
scFv: QVQLQESGPGLVKPSQTLSLTCTVSGASFGDNYWSWIRQPPGKGLEWIGYIDTSGSSDYNPSLKSRVTMSVDTSKNQFSLKVNSVTAADTAVYYCARVSWGYYAMDVWGQGTTVTVSSSGGSTITSYNVYYTKLSSSGTEIVMTQSPATLSLSPGERATLSCRASQGISGRLAWYQQKPGQAPRLLIYDVSTRATGIPARFSGSGSGTDFTLTISSLEPEDFAVYYCQQYDTSAPLTFGGGTKVEIK
notes: as for B1
Take B7: the Kd was determined as 0.235 nM in experiment [1], 1.2 nM in experiment [2] and 0.031 nM in experiment [3].

B8: Lib8_P4_C11_scFv (scFv)
scFv: QVQLVQSGAEVKKPGASVKVSCKVSGDTLSNYAIHWVRQAPGKGLEWMGGINPNAGTTIYAQKFQGRVTMTEDTSTDTAYMELSSLKSEDTAVYYCARDSSSWCPVGYYYYYMDVWGKGTTVTVSSSGGSTITSYNVYYTKLSSSGTDIQMTQSPSSVSASVGDRVTITCRASQSIGDFLAWYQQKPGKAPKLLIYDASHLQTGVPSRFSGSGSGTDFTLTISSLQPEDFANYYCQQTSTIPPTFGGGTKVEIK
notes: as for B1
Turning to B8, the Kd in experiment [1] came out at 0.617 nM; in experiment [2], 1.08 nM; in experiment [3] it was 0.155 nM.

B9: Lib4_P2_B1_scFv (scFv)
scFv: QVQLVQSGAEVKKPGASVKVSCKVSGDTLSNYAIHWVRQAPGKGLEWMGGINPNAGTTIYAQKFQGRVTMTEDTSTDTAYMELSSLKSEDTAVYYCARDSSSWCPVGYYYYYMDVWGKGTTVTVSSSGGSTITSYNVYYTKLSSSGTDIQMTQSPSSVSASVGDRVTITCRASQSIGDFLAWYQQKPGKAPKLLIYDASHLQTGVPSRFSGSGSGTDFTLTISSLQPEDFANYYCQQTSTIPPTFGGGTKVEIK
notes: as for B1
Consider B9, for which the Kd in experiment [1] worked out at 2.12 nM; in experiment [2], 1.89 nM; in experiment [3], 0.48 nM.

B10: Lib6_P3_E10_scFv (scFv)
scFv: QVQLVQSGAEVKKPGASVKVSCKVSGDTLSNYAIHWVRQAPGKGLEWMGGINPNAGTTIYAQKFQGRVTMTEDTSTDTAYMELSSLKSEDTAVYYCARDSSSWCPVGYYYYYMDVWGKGTTVTVSSSGGSTITSYNVYYTKLSSSGTDIQMTQSPSSVSASVGDRVTITCRASQSIGDFLAWYQQKPGKAPKLLIYDASHLQTGVPSRFSGSGSGTDFTLTISSLQPEDFANYYCQQTSTIPPTFGGGTKVEIK
notes: as for B1
As to B10, the Kd in experiment [1] amounted to 0.659 nM; in experiment [2], 1.72 nM; in experiment [3], 1.96 nM.

B11: Lib6_P3_A1_scFv (scFv)
scFv: QVQLVQSGAEVKKPGASVKVSCKVSGDTLSNYAIHWVRQAPGKGLEWMGGINPNAGTTIYAQKFQGRVTMTEDTSTDTAYMELSSLKSEDTAVYYCARDSSSWCPVGYYYYYMDVWGKGTTVTVSSSGGSTITSYNVYYTKLSSSGTDIQMTQSPSSVSASVGDRVTITCRASQSIGDFLAWYQQKPGKAPKLLIYDASHLQTGVPSRFSGSGSGTDFTLTISSLQPEDFANYYCQQTSTIPPTFGGGTKVEIK
notes: as for B1
In the case of B11, the values for the Kd in experiment [1], in experiment [2] and in experiment [3] were 1.32 nM, 1.41 nM and 0.017 nM, respectively.

B12: Lib4_P2_A3_scFv (scFv)
scFv: QVQLQESGPGLVKPSQTLSLTCTVSGVSLSTSDYSWSWIRQPPGKGLEWIGYISPPGRSDYNPSLKSRVTMSVDTSKNQFSLKVNSVTAADTAVYYCARHSSSGWYSTYDFDSWGQGTMVTVSSSGGSTITSYNVYYTKLSSSGTEIVMTQSPATLSLSPGERATLSCRASQNIHSNLAWYQQKPGQAPRLLIYGATTRATGIPARFSGSGSGTDFTLTISSLEPEDFAVYYCQQSYTTPLTFGGGTKVEIK
notes: as for B1
As to B12, the Kd in experiment [1] was 1.93 nM; in experiment [2] it was 1.48 nM; in experiment [3], 0.387 nM.

B13: Lib6_P3_B9_scFv (scFv)
scFv: EVQLVQSGAEVKKPGASVKVSCKASGDTFSSHVISWVRQAPGQGLEWMGGINPRTGTTIYAQKLQGRGTMTTDPSTSTAYMELRSLRSDDTAVYYCARTRPWAGLDVWGQGTTVTVSSSGGSTITSYNVYYTKLSSSGTESALTQPASVSGSPGQSITISCTGTNIEYKGVSWYQQHPGKAPKLMIYGVDKRPSGVSNRFSGSKSGNTASLTISGLQAEDEADYYCQAWGTSTAIFGGGTKLTVL
notes: as for B1
Consider B13, for which the Kd in experiment [1] was found to be 1.22 nM; in experiment [2] it was 1.41 nM; in experiment [3], 1.03 nM.

B14: 96_Lib4_scFv (scFv)
scFv: QVQLQESGPGLVKPSQTLSLTCTVSGESFSTSYWSWIRQPPGKGLEWIGYITHSGYTDYNPSLKSRVTMSVDTSKNQFSLKVNSVTAADTAVYYCARGGRFPFWYFDLWGRGSLVTVSSSGGSTITSYNVYYTKLSSSGTEIVMTQSPATLSLSPGERATLSCRASRSIGSNLAWYQQKPGQAPRLLIYGATTRATGIPARFSGSGSGTDFTLTISSLEPEDFAVYYCQQYKNDATFGGGTKVEIK
notes: as for B1
For the molecule B14, the Kd in experiment [1] stood at 1.4 nM; in experiment [2] it was 1.77 nM; in experiment [3] it was 1.21 nM.

B15: 4035_Lib1_scFv (scFv)
scFv: QVQLVQSGAEVKKPGASVKVSCKVSGYAFPSYGIHWVRQAPGKGLEWMGGISAFTGDTIYAQKFQGRVTMTEDTSTDTAYMELSSLKSEDTAVYYCASGPTNVLTGLMESAEYFQHWGQGTLVTVSSSGGSTITSYNVYYTKLSSSGTDIQMTQSPSSVSASVGDRVTITCRASQGISRDLAWYQQKPGKAPKLLIYGASGRATGVPSRFSGSGSGTDFTLTISSLQPEDFANYYCQQSYITPTTFGGGTKVEIK
notes: as for B1
With B15, the Kd in experiment [1] turned out to be 1.41 nM; in experiment [2] it was 1.76 nM; in experiment [3], 0.974 nM.

B16: 189_Lib4_scFv (scFv)
scFv: QVQLQESGPGLVKPSQTLSLTCTVSGVTFSSYGWSWIRQPPGKGLEWIGYVDTSGSTDYNPSLKSRVTMSVDTSKNQFSLKVNSVTAADTAVYYCARTTYYYDSSGFARGWFDPWGQGTLVTVSSSGGSTITSYNVYYTKLSSSGTEIVMTQSPATLSLSPGERATLSCRASQSVPSSHLAWYQQKPGQAPRLLIYDATNRAAGIPARFSGSGSGTDFTLTISSLEPEDFAVYYCQQYDNWPSPSFGGGTKVEIK
notes: as for B1
Regarding B16, the figures for the Kd in experiment [1], in experiment [2] and in experiment [3] were 0.269 nM, 1.37 nM and 0.441 nM, respectively.
